In paper PMC8816746, “Genetic tools for the redirection of the central carbon flow towards the production of lactate in the human gut bacterium Phocaeicola (Bacteroides) vulgatus” (Applied Microbiology and Biotechnology, 2022) one finds Km data, which are given here for 1 protein.

Substrate in this data set: CC(=O)C(=O)O
The data set can be described thus: purified protein. Conditions: 250 μM NADH, 100 mM K-phosphate pH 7, 37 °C. Type of data set: biochemical, Phocaeicola vulgatus.

B1: D-LDH (BVU_2499) (Phocaeicola vulgatus ATCC 8482) (protein)
chain: AYKIAFYDTKPYDERSFTEANEKFGFDIRYYKGHLNMNNVVLTKGVDVVCIFVNDTADAEVIRAMADNGVKLLALRCAGYNNVDLAATAGKMKVVRVPAYSPYAVAEFTVALMLSLNRKIPRATMRTRDGNFSLHGLMGFDMHGKTAGIIGTGKIAKILIQILRGFGMNVLAYDLYPDYNFAREHQVVYCTLDELYHSSDIISLHCPLTEQTKYLINDYSISKMKDGVMIINTGRGQLIHTNALIEGLKTKKVGYAGLDVYEEEEPYFYEDKSDKIIDDDTLARLLSFNNVIVTSHQAFFTKEAMTNIAHTTLQNVKDFAESRSLVNEVAVGRV
notes: full-length ldh in pASK-IBA5, N-terminal Strep-tag kept (no cleavage told), E. coli DH5alpha, Strep-Tactin purified
With B1, the Michaelis-Menten constant (Km) was determined as 1400 ± 100 µM.
